Each block holds one sequence with its values, some of them ahead of it.
How the values were obtained:
HLA-A*32:01 = assay: IEDB peptide-MHC binding, purified MHC/competitive/radioactivity; filed as Kd, often an IC50 or EC50 that approximates it; ≥ and ≤ were set here for values at or beyond the usual limits of such assays
HLA-A*30:01 = assay: as above
HLA-B*08:01 = assay: as above
HLA-B*44:03 = assay: as above
HLA-B*40:01 = assay: as above
HLA-B*44:02 = assay: as above
HLA-B*35:01 = assay: as above; conditions: source organism: Dengue virus 2 Jamaica/1409/1983
HLA-A*26:01 [1] = assay: IEDB peptide-MHC binding, purified MHC/competitive/fluorescence; filed as Kd, often an IC50 or EC50 that approximates it; ≥ and ≤ were set here for values at or beyond the usual limits of such assays
HLA-A*01:01 = assay: IEDB peptide-MHC binding, purified MHC/competitive/radioactivity; filed as Kd, often an IC50 or EC50 that approximates it; ≥ and ≤ were set here for values at or beyond the usual limits of such assays
HLA-A*29:02 = assay: as above
HLA-A*26:01 [2] = assay: as above
HLA-A*30:02 = assay: as above
HLA-B*51:01 = assay: as above; conditions: source organism: Dengue virus 2 Jamaica/1409/1983
HLA-B*53:01 = assay: as above; conditions: source organism: Dengue virus 2 Jamaica/1409/1983
HLA-A*02:06 = assay: as above; conditions: source organism: Dengue virus 3 Martinique/1243/1999
[3] = source organism: Dengue virus 4 Philippines/H241/1956
[4] = source organism: Vaccinia virus WR
[5] = source organism: Dengue virus 3 Martinique/1243/1999
[6] = source organism: Dengue virus 2 Jamaica/1409/1983
[7] = source organism: Mammarenavirus guanaritoense
[8] = source organism: Dengue virus 2 Peru/IQT2913/1996
[9] = source organism: Mammarenavirus brazilense

Sequence: KTKRILPSI
- Kd (HLA-A*32:01; [3]): 125 nM
- Kd (HLA-A*30:01; [3]): 6.75 nM

Sequence: NNRYRFAFL
- Kd (HLA-B*08:01; [4]): 31.1 nM

Sequence: AEMEEALKGL
- Kd (HLA-B*44:03; [5]): 56.2 nM
- Kd (HLA-B*40:01; [5]): 15.5 nM
- Kd (HLA-B*44:02; [5]): 26 nM

Sequence: ILRKIFYSV
- Kd (HLA-B*08:01; [4]): 0.102 nM

Sequence: VATTFVTPM
- Kd (HLA-B*35:01): 205 nM

Sequence: STVGASGVY
- Kd (HLA-A*26:01 [1]; source organism: Orthohantavirus sinnombreense): ≤ 1 nM

Sequence: WMIRILIGFL
- Kd (HLA-B*08:01; source organism: Dengue virus 4 Dominica/814669/1981): 168 nM

Sequence: GFMRFFQLL
- Kd (HLA-B*08:01; [4]): 2.39 nM

Sequence: LLLVTHYAI
- Kd (HLA-A*32:01; source organism: Dengue virus 3 Singapore/8120/1995): 41.6 nM

Sequence: LLQMEDKAWL
- Kd (HLA-B*08:01; [6]): 2010 nM

Sequence: GTFHTMWHVT
- Kd (HLA-A*32:01; [6]): 13400 nM

Sequence: ESALNISGY
- Kd (HLA-A*01:01; [7]): 37.4 nM
- Kd (HLA-A*32:01; [7]): ≥ 77800 nM
- Kd (HLA-A*29:02; [7]): ≥ 35400 nM
- Kd (HLA-A*26:01 [2]; [7]): 118 nM
- Kd (HLA-A*30:01; [7]): ≥ 67300 nM
- Kd (HLA-A*30:02; [7]): 733 nM

Sequence: KPTLDFELI
- Kd (HLA-B*51:01): ≥ 31200 nM
- Kd (HLA-B*53:01): 279 nM

Sequence: ELILDRGYY
- Kd (HLA-A*26:01 [1]; source organism: Bacillus cereus G9241): 211 nM

Sequence: EEIAVQNWL
- Kd (HLA-B*44:03; [6]): 10.6 nM
- Kd (HLA-B*40:01; [6]): 14.8 nM
- Kd (HLA-B*44:02; [6]): 6.91 nM

Sequence: MEAQLIRQM
- Kd (HLA-B*44:03; [6]): 119 nM
- Kd (HLA-B*40:01; [6]): 802 nM
- Kd (HLA-B*44:02; [6]): 11.2 nM

Sequence: IGVIITWIGM
- Kd (HLA-A*32:01; [6]): ≥ 59000 nM

Sequence: NDMISYGGGW
- Kd (HLA-B*44:03; [3]): 71.2 nM
- Kd (HLA-B*44:02; [3]): 6.18 nM

Sequence: NNRVLFNNF
- Kd (HLA-B*08:01; [4]): 773 nM

Sequence: GESSPNPTV
- Kd (HLA-B*40:01; [8]): 15.6 nM
- Kd (HLA-B*44:02; [8]): 321 nM

Sequence: WIEDNPWMED
- Kd (HLA-A*32:01; [5]): 4160 nM

Sequence: LINLTTIAY
- Kd (HLA-A*01:01; [9]): 576 nM
- Kd (HLA-A*32:01; [9]): 8970 nM
- Kd (HLA-A*29:02; [9]): 345 nM
- Kd (HLA-A*26:01 [2]; [9]): 12200 nM
- Kd (HLA-A*30:01; [9]): 9390 nM
- Kd (HLA-A*30:02; [9]): 1450 nM

Sequence: FTLTVAWRTA
- Kd (HLA-A*02:06): 376 nM
- Kd (HLA-A*32:01; [5]): 9400 nM

Sequence: RLNQPVNNI
- Kd (HLA-A*32:01; [4]): 25 nM

Sequence: NLAERFCTE
- Kd (HLA-B*08:01; [4]): 1900 nM

Sequence: TLKRRSWPLN
- Kd (HLA-A*32:01; [5]): 19100 nM
- Kd (HLA-A*30:01; [5]): 5450 nM

Sequence: SGMRRQEQI
- Kd (HLA-B*08:01; [4]): 16.5 nM

Sequence: IIWKGIYTY
- Kd (HLA-A*32:01; [4]): 3.28 nM

- Kd (HLA-A*26:01 [1]; source organism: Escherichia coli): 186 nM
Sequence: DTAKAFAYL

Sequence: AAGRKSLTL
- Kd (HLA-B*08:01; [6]): 210 nM

Sequence: LPVWLAYRVA
- Kd (HLA-B*51:01): 4990 nM
- Kd (HLA-B*35:01): 311 nM

Sequence: GEGLHKLGY
- Kd (HLA-B*44:03; [6]): 280 nM
- Kd (HLA-B*44:02; [6]): 120 nM

Sequence: AETQNSSFI
- Kd (HLA-B*44:03; [5]): 123 nM
- Kd (HLA-B*40:01; [5]): 142 nM
- Kd (HLA-B*44:02; [5]): 2.67 nM

Sequence: EEVQVLALE
- Kd (HLA-B*44:03; [6]): 10500 nM

Sequence: YRPLHFQYV
- Kd (HLA-B*08:01; [4]): 245 nM
